6 molecules from US20030166873A1 (Genentech, published 2003) can be followed below.

B5: Flt4/IgG (extracellular domain of the Flt4 receptor, amino acids 1-775, spliced to the Fc region of a human IgG heavy chain) (Fc fusion, UniProt P35916 25-775, looked up)
chain: YSMTPPTLNITEESHVIDTGDSLSISCRGQHPLEWAWPGAQEAPATGDKDSEDTGVVRDCEGTDARPYCKVLLLHEVHANDTGSYVCYYKYIKARIEGTTAASSYVFVRDFEQPFINKPDTLLVNRKDAMWVPCLVSIPGLNVTLRSQSSVLWPDGQEVVWDDRRGMLVSTPLLHDALYLQCETTWGDQDFLSNPFLVHITGNELYDIQLLPRKSLELLVGEKLVLNCTVWAEFNSGVTFDWDYPGKQAERGKWVPERRSQQTHTELSSILTIHNVSQHDLGSYVCKANNGIQRFRESTEVIVHENPFISVEWLKGPILEATAGDELVKLPVKLAAYPPPEFQWYKDGKALSGRHSPHALVLKEVTEASTGTYTLALWNSAAGLRRNISLELVVNVPPQIHEKEASSPSIYSRHSRQALTCTAYGVPLPLSIQWHWRPWTPCKMFAQRSLRRRQQQDLMPQCRDWRAVTTQDAVNPIESLDTWTEFVEGKNKTVSKLVIQNANVSAMYKCVVSNKVGQDERLIYFYVTTIPDGFTIESKPSEELLEGQPVLLSCQADSYKYEHLRWYRLNLSTLHDAHGNPLLLDCKNVHLFATPLAASLEEVAPGARHATLSLSIPRVAPEHEGHYVCEVQDRRSHDKHCHKKYLSVQALEAPRLTQNLTDLLVNVSDSLEMQCLVAGAHAPSIVWYKDERLLEEKSGVDLADSNQKLSIQRVREEDAGRYLCSVCNAKGCVNSSASVAVEGSEDKGSME
modifications: 125I-iodinated where used as the labeled form (Example 6)
notes: range 25-775; also called Flt4 receptor-IgG fusion; ^125I-Flt4/IgG; not shown: Fc region (CH2CH3, plasmid pBSSK-Fc) of a human IgG heavy chain
B6: VH1.4 gD fusion protein (herpes glycoprotein D sequence fused to the putative mature sequence of VRP, plasmid pRK.vh1.4.5) (ligand)
chain: KYALADASLKMADPNRFRGKDLPVLDQLLEGGAAHYALLPGPREAPAAAAAFESGLDLSDAEPDAGEATAYASKDLEEQLRSVSSVDELMTVLYPEYWKMYKCQLRKGGWQHNREQANLNSRTEETIKFAAAHTNTEILKSIDNEWRKTQCMPREVCIDVGKEFGVATNTFFKPPCVSVYRCGGCCNSEGLQCMNTSTSYLSKTLFEITVPLSQGPKPVTISFANHTSCRCMSKLDVYRQVHSIIRRSLPATLPQCQAANKTCPTNYMWNNHICRCLAQEDFMFSSDAGDDSTDGFHDICGPNKELDEETCQCVCRAGLRPASCGPHKELDRNSCQCVCKNKLFPSQCGANREFDENTCQCVCKRTCPRNQPLNPGKCACECTESPQKCLLKGKKFHHQTCSCYRRPCTNRQKACEPGFSYSEEVCRCVPSYWKRPQMS
notes: also called purified VRP; gD-VRP

Experiment [1] deals with B5. The experiment can be described thus: receptor IgG / protein A precipitation of 35S-labeled COS7 conditioned medium.
Experiment [2] addresses B5. Description: receptor IgG / protein A precipitation of 35S-labeled conditioned medium.
For experiment [3], the target named is T1, Flk1/IgG (UniProt P35968 20-764, limits assumed).
T1 construct: Construct known only by citation
The experiment is described as above.

Experiment [4] addresses B5. The experiment can be described thus: binding of labeled VEGF to receptor IgG.
For experiment [5], the target named is putative membrane-bound VRP (putative membrane-bound ligand) on human glioma cell line G61. The experiment can be described thus: FACS, 70 nM receptor IgG on G61 cells, compared with Rse/IgG. (In general: In flow cytometry, cells or beads pass a laser one at a time.)
In experiment [6] the target is B6. The experiment can be described thus: competition of ^125I-Flt4/IgG binding to gD-VRP on 5B6 beads by increasing unlabeled Flt4/IgG.
Experiment [7] deals with B5. Description: ^125I-Flt4/IgG binding to gD-VRP captured on 5B6 glass beads, filtration and counting.

T1 sequence (P35968 20-764 limits assumed): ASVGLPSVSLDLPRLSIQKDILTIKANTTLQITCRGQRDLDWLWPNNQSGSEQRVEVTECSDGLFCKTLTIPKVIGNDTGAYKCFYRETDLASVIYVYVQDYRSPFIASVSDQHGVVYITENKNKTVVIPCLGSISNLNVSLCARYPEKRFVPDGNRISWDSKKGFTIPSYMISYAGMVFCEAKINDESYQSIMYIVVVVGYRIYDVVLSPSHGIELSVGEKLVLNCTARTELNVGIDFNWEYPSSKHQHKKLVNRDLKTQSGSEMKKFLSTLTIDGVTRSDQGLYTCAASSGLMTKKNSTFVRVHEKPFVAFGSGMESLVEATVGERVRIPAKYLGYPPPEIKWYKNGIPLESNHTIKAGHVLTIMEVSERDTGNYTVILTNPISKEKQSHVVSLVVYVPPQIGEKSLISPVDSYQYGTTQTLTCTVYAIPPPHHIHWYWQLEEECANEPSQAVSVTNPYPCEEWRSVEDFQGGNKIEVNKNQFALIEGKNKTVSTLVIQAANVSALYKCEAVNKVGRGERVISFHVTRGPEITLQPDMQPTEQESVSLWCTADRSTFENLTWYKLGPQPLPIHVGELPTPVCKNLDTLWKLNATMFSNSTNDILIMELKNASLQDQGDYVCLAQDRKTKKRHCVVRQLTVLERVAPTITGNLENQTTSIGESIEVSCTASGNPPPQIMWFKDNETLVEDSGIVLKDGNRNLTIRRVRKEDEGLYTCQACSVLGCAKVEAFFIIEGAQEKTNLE

B1: human VEGF-related protein (VRP), expressed from cDNA clone VH1.4 (plasmid pRK.vh1.4.2) (ligand)
chain: GPREAPAAAAAFESGLDLSDAEPDAGEATAYASKDLEEQLRSVSSVDELMTVLYPEYWKMYKCQLRKGGWQHNREQANLNSRTEETIKFAAAHTNTEILKSIDNEWRKTQCMPREVCIDVGKEFGVATNTFFKPPCVSVYRCGGCCNSEGLQCMNTSTSYLSKTLFEITVPLSQGPKPVTISFANHTSCRCMSKLDVYRQVHSIIRRSLPATLPQCQAANKTCPTNYMWNNHICRCLAQEDFMFSSDAGDDSTDGFHDICGPNKELDEETCQCVCRAGLRPASCGPHKELDRNSCQCVCKNKLFPSQCGANREFDENTCQCVCKRTCPRNQPLNPGKCACECTESPQKCLLKGKKFHHQTCSCYRRPCTNRQKACEPGFSYSEEVCRCVPSYWKRPQMS
modifications: 35S-labeled amino acids in Example 4
notes: The cleavage site after amino acid 20 is predicted ('most likely'; cleavage after 15 or 16 is not excluded); Flt4/IgG precipitated bands of 53 kDa and 33 kDa, so the secreted protein may be further processed
In the case of B1, the binding result in experiment [1] was “binds”.

B2: PlGF152 (expression plasmid of Park et al.) (ligand, UniProt P49763-3 19-170, looked up)
chain: LPAVPPQQWALSAGNGSSEVEVVPFQEVWGRSYCRALERLVDVVSEYPSEVEHMFSPSCVSLLRCTGCCGDENLHCVPVETANVTMQLLKIRSGDRPSYVELTFSQHVRCECRPLREKMKPERRRPKGRGKRRREKQRPTDCHLCGDAVPRR
modifications: 35S-labeled amino acids
notes: also called PIGF; placental growth factor
Regarding B2, the binding result in experiment [2] and in experiment [3] was “no binding (tested: 3 µg of receptor IgG)” throughout.

B3: Labeled VEGF (ligand, UniProt P15692-4 27-191, looked up)
chain: APMAEGGGQNHHEVVKFMDVYQRSYCHPIETLVDIFQEYPDEIEYIFKPSCVPLMRCGGCCNDEGLECVPTEESNITMQIMRIKPHQGQHIGEMSFLQHNKCECRPKKDRARQENPCGPCSERRKHLFVQDPQTCKCSCKNTDSRCKARQLELNERTCRCDKPRR
modifications: labeled (label not stated)
In the case of B3, the binding result in experiment [4] is “no binding”.

B4: VEGF165 (expression plasmid of Houck et al.) (ligand, UniProt P15692-4 27-191, looked up)
chain: APMAEGGGQNHHEVVKFMDVYQRSYCHPIETLVDIFQEYPDEIEYIFKPSCVPLMRCGGCCNDEGLECVPTEESNITMQIMRIKPHQGQHIGEMSFLQHNKCECRPKKDRARQENPCGPCSERRKHLFVQDPQTCKCSCKNTDSRCKARQLELNERTCRCDKPRR
modifications: 35S-labeled amino acids in Example 4
notes: The background calls VEGF a homodimer
With B4, the binding result in experiment [2] is listed as “no binding (tested: 3 µg of receptor IgG)”.

As usually defined, the EC50 is the concentration giving half of the maximal effect. Lower therefore signals an effect from little substance. As to B5, the “shift in peak fluorescence intensity” value in experiment [5] is ~10 fold. In addition, the concentration giving a half-maximal response (EC50) in experiment [6] is ~0.7 nM.

For B6, the binding result in experiment [7] is “binds”.
